Key:
[1] = molecular target: T1, human LAP-TGFB2 Fc fusion (human); assay: SPR pH 7.4
T1 construct: also called human LAP-TGFβ2; LAP-TGFβ isoform 2

[2] = molecular target: T2, human LAP-TGFB3 Fc fusion (human); assay: SPR pH 7.4
T2 construct: also called human LAP-TGFβ3; LAP-TGFβ isoform 3

[3] = molecular target: T3, human LAP-TGFB1 Fc fusion (human); assay: SPR pH 7.4, antigen-Fc captured, Fab analyte
T3 construct: also called human LAP-TGFβ1-Fc; human LAP-TGFβ-Fc isoform 1

[4] = molecular target: T3, human LAP-TGFB1 Fc fusion; assay: SPR
[5] = molecular target: T3, human LAP-TGFB1 Fc fusion; assay: SPR pH 7.4, antigen-Fc captured, Fab analyte; remark: listed apart in the source
[6] = molecular target: T3, human LAP-TGFB1 Fc fusion; assay: SPR pH 6.0, antigen-Fc captured, Fab analyte
Experimental: A Series S CM4 sensor chip (Cytiva, catalog BR100534) was immobilized with an anti-human Fc capture antibody following the kit protocol (Cytiva, catalog BR100839) on a Biacore T200 instrument with 1× HBS-EP+ (Teknova, catalog H8022). […] The binding data were double referenced by subtraction of signal from a reference (capture surface only) flow cell and the 0 nM Fab injection. Binding rate constants were determined by fitting the data with a 1:1 binding model (Cytiva Biacore T200 Evaluation software 3.0).

T2 sequence (chain, as listed by the source limits assumed): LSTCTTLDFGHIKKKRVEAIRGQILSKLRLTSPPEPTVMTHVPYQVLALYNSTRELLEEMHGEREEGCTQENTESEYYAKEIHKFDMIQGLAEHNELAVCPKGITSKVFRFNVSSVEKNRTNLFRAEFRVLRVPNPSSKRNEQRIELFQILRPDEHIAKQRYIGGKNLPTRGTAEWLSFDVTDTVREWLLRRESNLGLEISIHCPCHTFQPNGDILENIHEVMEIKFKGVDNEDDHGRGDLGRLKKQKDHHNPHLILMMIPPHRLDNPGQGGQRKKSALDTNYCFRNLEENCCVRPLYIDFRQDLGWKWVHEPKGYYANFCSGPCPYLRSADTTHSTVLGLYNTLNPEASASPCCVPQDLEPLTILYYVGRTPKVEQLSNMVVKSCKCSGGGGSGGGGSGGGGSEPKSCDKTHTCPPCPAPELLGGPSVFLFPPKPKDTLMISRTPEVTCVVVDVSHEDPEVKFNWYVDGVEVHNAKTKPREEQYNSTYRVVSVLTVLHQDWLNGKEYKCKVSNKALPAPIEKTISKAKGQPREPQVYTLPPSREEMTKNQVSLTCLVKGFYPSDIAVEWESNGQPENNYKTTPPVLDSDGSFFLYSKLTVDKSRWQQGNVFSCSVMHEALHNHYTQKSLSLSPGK
T3 sequence (chain, as listed by the source limits assumed): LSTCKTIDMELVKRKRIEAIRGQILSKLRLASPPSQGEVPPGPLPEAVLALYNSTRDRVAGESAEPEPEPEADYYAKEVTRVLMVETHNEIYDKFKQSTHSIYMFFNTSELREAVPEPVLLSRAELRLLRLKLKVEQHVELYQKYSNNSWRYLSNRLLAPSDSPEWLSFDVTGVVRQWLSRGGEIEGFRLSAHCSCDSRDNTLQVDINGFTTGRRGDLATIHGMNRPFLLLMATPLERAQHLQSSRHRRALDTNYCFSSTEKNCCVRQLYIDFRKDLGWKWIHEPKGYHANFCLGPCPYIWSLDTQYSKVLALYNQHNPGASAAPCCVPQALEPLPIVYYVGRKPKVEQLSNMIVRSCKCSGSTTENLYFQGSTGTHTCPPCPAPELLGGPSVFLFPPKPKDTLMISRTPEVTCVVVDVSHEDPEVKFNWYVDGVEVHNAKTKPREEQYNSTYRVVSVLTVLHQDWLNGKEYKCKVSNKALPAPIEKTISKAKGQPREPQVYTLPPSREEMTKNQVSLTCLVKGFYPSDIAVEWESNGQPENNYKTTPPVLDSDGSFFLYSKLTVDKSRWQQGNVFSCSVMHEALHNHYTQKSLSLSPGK
T1 sequence (chain, as listed by the source limits assumed): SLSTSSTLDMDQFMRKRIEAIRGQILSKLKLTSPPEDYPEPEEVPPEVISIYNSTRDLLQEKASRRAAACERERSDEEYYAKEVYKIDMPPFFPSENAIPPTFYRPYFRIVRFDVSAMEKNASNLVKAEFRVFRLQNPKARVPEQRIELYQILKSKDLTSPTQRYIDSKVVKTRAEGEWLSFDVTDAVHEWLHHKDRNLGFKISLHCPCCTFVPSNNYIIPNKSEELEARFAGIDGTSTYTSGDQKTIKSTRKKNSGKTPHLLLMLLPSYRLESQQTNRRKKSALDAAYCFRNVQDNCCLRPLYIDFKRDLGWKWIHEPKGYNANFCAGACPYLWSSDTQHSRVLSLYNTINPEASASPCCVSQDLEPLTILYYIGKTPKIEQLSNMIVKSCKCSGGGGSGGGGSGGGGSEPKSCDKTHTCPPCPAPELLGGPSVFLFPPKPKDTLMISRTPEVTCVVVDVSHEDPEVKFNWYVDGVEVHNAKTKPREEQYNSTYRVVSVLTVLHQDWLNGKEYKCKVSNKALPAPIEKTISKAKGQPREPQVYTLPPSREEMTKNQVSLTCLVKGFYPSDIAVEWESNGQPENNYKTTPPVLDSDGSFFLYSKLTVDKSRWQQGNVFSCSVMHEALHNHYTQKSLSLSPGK

Binder | binding result [1] | binding result [2] | Fold improvement in KD [3] [fold] | Kd [3] [nM] | koff [3] [s⁻¹] | kon [3] [M⁻¹ s⁻¹] | Fold change in KD from pH 7.4 to pH 6 [4] [fold] | Kd [5] [nM] | koff [5] [s⁻¹] | kon [5] [M⁻¹ s⁻¹] | Kd [6] [nM] | koff [6] [s⁻¹] | kon [6] [M⁻¹ s⁻¹]
56BLH (Fab, V domains shown, also called 08BLM Fab) VH: EVQLVQSGAEVKKPGASVKVSCKASGYTFTSYDMHWVRQAPGQGLEWMGRIDPQSGGTKYAQKFQGRATLTVDTSTSTAYMELSRLRSDDTAVYYCARWDYGGQFDVWGQGTLVTVSS VL: DIQMTQSPSSLSASVGDRVTITCRASQDIYNYLNWYQQKPGKAVKLLIYYTSGLETGVPSRFSGSGSGTDYTLTISSLQPEDFATYFCQQGDTLPWTFGQGTKLEIK | no binding (tested: 1000 nM Fab) | no binding (tested: 1000 nM Fab) | 9760 | 0.006 | 2.57e-05 | 4.53e+06 | 1.7 | 0.006 | 2.57e-05 | 4.53e+06 | 0.01 | 5.56e-05 | 5.55e+06
61BLH (Fab, V domains shown, also called 13BLM Fab) VH: EVQLVQSGAEVKKPGASVKVSCKASGYTFTSYDMHWVRQAPGQGLEWMGRIDPQTGDIKYAQKFQGRATLTVDTSTSTAYMELSRLRSDDTAVYYCARWDYGGQFDVWGQGTLVTVSS VL: DIQMTQSPSSLSASVGDRVTITCRASQDIYNYLNWYQQKPGKAVKLLIYYTSGLETGVPSRFSGSGSGTDYTLTISSLQPEDFATYFCQQGDTLPWTFGQGTKLEIK | no binding (tested: 1000 nM Fab) | no binding (tested: 1000 nM Fab) | 4500 | 0.013 | 4.52e-05 | 3.57e+06 | 2.4 | 0.013 | 4.52e-05 | 3.57e+06 | 0.031 | 0.000121 | 3.91e+06

Results, then the binder that gave them:

binding result [1] | binding result [2] | Fold improvement in KD [3] [fold] | Kd [3] [nM] | koff [3] [s⁻¹] | kon [3] [M⁻¹ s⁻¹] | Fold change in KD from pH 7.4 to pH 6 [4] [fold] | Kd [5] [nM] | koff [5] [s⁻¹] | kon [5] [M⁻¹ s⁻¹] | Kd [6] [nM] | koff [6] [s⁻¹] | kon [6] [M⁻¹ s⁻¹] | Binder
no binding (tested: 1000 nM Fab) | no binding (tested: 1000 nM Fab) | 723 | 0.081 | 0.00049 | 6.06e+06 | 1.3 | 0.081 | 0.00049 | 6.06e+06 | 0.106 | 0.00159 | 1.54e+07 | 57BLH (Fab, V domains shown, also called 09BLM Fab) VH: EVQLVQSGAEVKKPGASVKVSCKASGYTFTSYDMHWVRQAPGQGLEWMGRIDPISGGIKYAQKFQGRATLTVDTSTSTAYMELSRLRSDDTAVYYCARWDYGGYFDVWGQGTLVTVSS VL: DIQMTQSPSSLSASVGDRVTITCRASQDIFNYLNWYQQKPGKAVKLLIYYTSHLETGVPSRFSGSGSGTDYTLTISSLQPEDFATYFCQQGDTLPWTFGQGTKLEIK
no binding (tested: 1000 nM Fab) | no binding (tested: 1000 nM Fab) | 1100 | 0.053 | 0.000313 | 5.93e+06 | 1.6 | 0.053 | 0.000313 | 5.93e+06 | 0.086 | 0.000591 | 6.88e+06 | 58BLH (Fab, V domains shown, also called 10BLM Fab) VH: EVQLVQSGAEVKKPGASVKVSCKASGYTFTSYDMHWVRQAPGQGLEWMGRIDPQSGGTKYAQKFQGRATLTVDTSTSTAYMELSRLRSDDTAVYYCARWDYGGYFDVWGQGTLVTVSS VL: DIQMTQSPSSLSASVGDRVTITCRASQDIYNYLNWYQQKPGKAVKLLIYYTSVLETGVPSRFSGSGSGTDYTLTISSLQPEDFATYFCQQGDTLPWTFGQGTKLEIK

Source: patent US20230272056A1 (Merck Sharp & Dohme, published 2023)
